From PMC8386582 (Biomaterials, 2020)

Biological target: CD19 (Homo sapiens (Raji, SU-DHL-7 cells), UniProt P15391)
Test: flow cytometry on cells

CD19, sequence (P15391 20-556): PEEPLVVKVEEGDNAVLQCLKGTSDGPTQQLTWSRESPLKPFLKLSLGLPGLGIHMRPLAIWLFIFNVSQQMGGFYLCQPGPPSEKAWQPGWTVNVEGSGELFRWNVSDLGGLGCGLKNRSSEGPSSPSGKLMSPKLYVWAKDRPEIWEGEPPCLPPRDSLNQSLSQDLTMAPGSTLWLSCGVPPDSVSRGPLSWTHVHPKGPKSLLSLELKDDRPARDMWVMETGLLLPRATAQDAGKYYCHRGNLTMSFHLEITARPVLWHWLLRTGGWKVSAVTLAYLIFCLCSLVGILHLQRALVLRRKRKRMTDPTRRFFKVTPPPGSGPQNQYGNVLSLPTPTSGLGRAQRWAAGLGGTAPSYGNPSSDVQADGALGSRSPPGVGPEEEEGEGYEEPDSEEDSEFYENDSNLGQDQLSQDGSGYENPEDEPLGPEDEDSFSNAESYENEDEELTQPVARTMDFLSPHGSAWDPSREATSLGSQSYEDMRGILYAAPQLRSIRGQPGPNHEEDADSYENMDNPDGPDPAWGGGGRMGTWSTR

B1: aCD19A (anti-CD19-A192) Nanoworm (scFv, V domains shown)
VH: QVQLQQSGAELVRPGSSVKISCKASGYAFSSYWMNWVKQRPGQGLEWIGQIWPGDGDTNYNGKFKGKATLTADESSSTAYMQLSSLASEDSAVYFCARRETTTVGRYYYAMDYWGQGTTVTVSS
VL: DIQLTQSPASLAVSLGQRATISCKASQSVDYDGDSYLNWYQQIPGQPPKLLIYDASNLVSGIPPRFSGSGSGTDFTLNIHPVEKVDAATYHCQQSTEDPWTFGGGTKLEIK
Does B1 bind?
Result: binds
